Reference: patent publication US20240108766A1 (Bayer, published 2024)

Target: T1, Cathepsin S (CTSS) on transfected HEK293 cells (human, UniProt P25774 115-331)
T1 construct: whole, on cells; also called CTSS/ZsGreen1
Experiment: flow cytometry, live transfected HEK293 cells

T1 sequence (P25774 115-331): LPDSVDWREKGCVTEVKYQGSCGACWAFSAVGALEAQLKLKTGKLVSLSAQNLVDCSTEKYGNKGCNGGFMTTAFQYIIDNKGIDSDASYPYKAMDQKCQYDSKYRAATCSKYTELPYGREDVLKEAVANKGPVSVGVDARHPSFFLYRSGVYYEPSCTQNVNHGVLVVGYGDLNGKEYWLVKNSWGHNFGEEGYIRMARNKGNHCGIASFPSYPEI

B1: TPP-14389 (antibody, human IgG1, kappa, V domains shown)
VH: EVQLLESGGGLVQPGGSLRLSCAASGFTFSGYMMSWVRQAPGKGLEWVSGIYPSPGYTYYADSVKGRFTISRDNSKNTLYLQMNSLRAEDTAVYYCAREKASDLFGSYSEALDYWGQGTLVTVSS
VL: DIQMTQSPDSLSASVGDRVTITCRASQDVGSWLAWYQQKPGKAPKLLIFAASSLESGIPSRFSGSGSGTDFTLTISSLQPEDFATYYCQQANGFPLTFGGGTKVEIKR
notes: also called 13612-rec02-hIgG1Kappa
binding result: no binding (tested: up to 62.5 µg/ml)
